Experimental data as given in the Immune Epitope Database (IEDB).

Experiments:
HLA-B*54:01 = assay: IEDB peptide-MHC binding, purified MHC/competitive/radioactivity; filed as Kd, often an IC50 or EC50 that approximates it; ≥ and ≤ were set here for values at or beyond the usual limits of such assays
HLA-B*53:01 = assay: as above
HLA-B*07:02 = assay: as above
HLA-B*51:01 [1] = assay: as above
HLA-B*35:01 = assay: as above
HLA-A*68:02 = assay: as above
HLA-B*08:01 = assay: as above
HLA-A*26:01 = assay: IEDB peptide-MHC binding, purified MHC/competitive/fluorescence; filed as Kd, often an IC50 or EC50 that approximates it; ≥ and ≤ were set here for values at or beyond the usual limits of such assays
HLA-B*57:01 = assay: as above
HLA-B*39:01 = assay: as above
HLA-A*02:01 [2] = assay: as above
HLA-B*18:01 = assay: as above
HLA-B*15:01 [3] = assay: as above
HLA-B*51:01 [4] = assay: as above; details: source organism: Helicobacter pylori 26695
HLA-B*46:01 [5] = assay: as above
HLA-B*27:03 = assay: as above
HLA-A*03:01 = assay: as above
HLA-B*15:01 [6] = assay: IEDB peptide-MHC binding, purified MHC/competitive/radioactivity; filed as Kd, often an IC50 or EC50 that approximates it; ≥ and ≤ were set here for values at or beyond the usual limits of such assays
HLA-A*02:06 = assay: as above
HLA-A*02:02 = assay: as above
HLA-A*02:03 = assay: as above
HLA-A*02:01 [7] = assay: as above; details: source organism: Lassa virus Josiah
HLA-B*46:01 [8] = assay: IEDB peptide-MHC binding, purified MHC/direct/fluorescence; filed as Kd, often an IC50 or EC50 that approximates it; ≥ and ≤ were set here for values at or beyond the usual limits of such assays; details: source organism: Yellow fever virus
[9] = source organism: Triticum aestivum
[10] = source organism: SARS coronavirus Tor2
[11] = source organism: Dengue virus 2 Jamaica/1409/1983
[12] = source organism: Helicobacter pylori 26695
[13] = source organism: Vaccinia virus WR
[14] = source organism: Dengue virus 1 Brazil/97-11/1997
[15] = source organism: Camelpox virus CMS
[16] = source organism: Lassa virus Josiah
[17] = source organism: Dengue virus 3 Martinique/1243/1999

YPSGQGSF
Kd (HLA-B*54:01; [9]): 13300 nM
Kd (HLA-B*53:01; [9]): 5150 nM
Kd (HLA-B*07:02; [9]): 11100 nM
Kd (HLA-B*51:01 [1]; [9]): 998 nM
Kd (HLA-B*35:01; [9]): 4880 nM

LPDDFMGCVL
Kd (HLA-B*54:01; [10]): 5490 nM
Kd (HLA-B*53:01; [10]): 499 nM
Kd (HLA-B*07:02; [10]): 105 nM
Kd (HLA-B*51:01 [1]; [10]): 98.4 nM
Kd (HLA-B*35:01; [10]): 353 nM

NSTHEMYWV
Kd (HLA-A*68:02; [11]): 92.1 nM

SIFIRMLIL
Kd (HLA-B*08:01; source organism: Vaccinia virus Copenhagen): 10.1 nM

VSRQEKGKSL
Kd (HLA-B*08:01; source organism: Dengue virus 2 Peru/IQT2913/1996): 967 nM

GIVCYNEEV
Kd (HLA-A*26:01; [12]): ≥ 20000 nM
Kd (HLA-B*57:01; [12]): ≥ 20000 nM
Kd (HLA-B*39:01; [12]): ≥ 20000 nM
Kd (HLA-A*02:01 [2]; [12]): 38 nM
Kd (HLA-B*18:01; [12]): ≥ 20000 nM
Kd (HLA-B*15:01 [3]; [12]): ≥ 20000 nM
Kd (HLA-B*51:01 [4]): ≥ 20000 nM
Kd (HLA-B*46:01 [5]; [12]): ≥ 20000 nM
Kd (HLA-B*27:03; [12]): ≥ 20000 nM
Kd (HLA-A*03:01; [12]): ≥ 20000 nM

YAKSKRMAE
Kd (HLA-B*08:01; [13]): 31.1 nM

FPLCANGQVF
Kd (HLA-B*54:01; [10]): 358 nM
Kd (HLA-B*53:01; [10]): 1.94 nM
Kd (HLA-B*07:02; [10]): 87.1 nM
Kd (HLA-B*51:01 [1]; [10]): 10.6 nM
Kd (HLA-B*35:01; [10]): 1.84 nM

MQRKHGGML
Kd (HLA-B*15:01 [6]; [14]): 100 nM
Kd (HLA-B*08:01; [14]): 170 nM

WVIDTLNGI
Kd (HLA-A*26:01; [15]): ≥ 20000 nM
Kd (HLA-B*57:01; [15]): ≥ 20000 nM
Kd (HLA-B*39:01; [15]): ≥ 20000 nM
Kd (HLA-A*02:01 [2]; [15]): 7.4 nM
Kd (HLA-B*18:01; [15]): ≥ 20000 nM
Kd (HLA-B*15:01 [3]; [15]): ≥ 20000 nM
Kd (HLA-B*46:01 [5]; [15]): ≥ 20000 nM
Kd (HLA-B*27:03; [15]): ≥ 20000 nM
Kd (HLA-A*03:01; [15]): ≥ 20000 nM

SRISRFANL
Kd (HLA-B*08:01; [13]): 19.6 nM

MSIISFFPF
Kd (HLA-B*15:01 [6]; [13]): 0.168 nM
Kd (HLA-B*08:01; [13]): 857 nM

EIASLPTYL
Kd (HLA-A*68:02; source organism: Dengue virus 4 Philippines/H241/1956): 7.91 nM

ITASILLWYA
Kd (HLA-A*02:06; [11]): 1.98 nM
Kd (HLA-A*68:02; [11]): 12.4 nM

PPFTQHLLNI
Kd (HLA-B*54:01; [13]): ≥ 69900 nM
Kd (HLA-B*53:01; [13]): ≥ 20900 nM
Kd (HLA-B*07:02; [13]): ≥ 69600 nM
Kd (HLA-B*51:01 [1]; [13]): 12500 nM
Kd (HLA-B*35:01; [13]): ≥ 69900 nM

IISTFHLSI
Kd (HLA-A*02:06; [16]): 264 nM
Kd (HLA-A*68:02; [16]): 652 nM
Kd (HLA-A*02:02; [16]): 236 nM
Kd (HLA-A*02:03; [16]): 13.9 nM

ELNDRFANYI
Kd (HLA-A*68:02; source organism: Homo sapiens): 11.6 nM
Kd (HLA-A*02:02; source organism: Homo sapiens): 37.6 nM

TVVVGDIIGV
Kd (HLA-A*02:06; [17]): 2.44 nM
Kd (HLA-A*68:02; [17]): 1.87 nM

LPVNVAFEL
Kd (HLA-B*54:01; [10]): 420 nM
Kd (HLA-B*53:01; [10]): 10.4 nM
Kd (HLA-B*51:01 [1]; [10]): 1.14 nM
Kd (HLA-B*35:01; [10]): 1.89 nM

MPVETLFGSY
Kd (HLA-B*54:01; [13]): 106 nM
Kd (HLA-B*53:01; [13]): 2.28 nM
Kd (HLA-B*07:02; [13]): ≥ 44000 nM
Kd (HLA-B*51:01 [1]; [13]): ≥ 69600 nM
Kd (HLA-B*35:01; [13]): 3.28 nM

RLFTKVKPLL
Kd (HLA-A*02:06; source organism: Homo sapiens): 4040 nM
Kd (HLA-A*68:02; source organism: Homo sapiens): 13600 nM
Kd (HLA-A*02:03; source organism: Homo sapiens): 96 nM

SIFLHLVKI
Kd (HLA-A*02:01 [7]): 385 nM

FPANINDKQI
Kd (HLA-B*54:01; [13]): 13.8 nM
Kd (HLA-B*53:01; [13]): 8.77 nM
Kd (HLA-B*07:02; [13]): 468 nM
Kd (HLA-B*51:01 [1]; [13]): 145 nM
Kd (HLA-B*35:01; [13]): 384 nM

VLIEVNPPF
Kd (HLA-B*46:01 [8]): ≥ 20000 nM
